We go through two proteins from patent US20190352639A1 (University of Washington, published 2019).

Positions count from the first letter of the chain named.

Data set [1] concerns the molecule itself. The data set is described as follows: size exclusion chromatography and negative stain electron microscopy, self-assembly.
Data set [2] concerns the molecule itself. In words: electron cryo-tomography of vesicles from transfected HEK293T cells, self-assembly.

B1: Myr-I3-01-myc-p6 (designed binder)
chain: MGARASGSKSGSGSDSGSKMEELFKKHKIVAVLRANSVEEAKKKALAVFLGGVHLIEITFTVPDADTVIKELSFLKEMGAIIGAGTVTSVEQCRKAVESGAEFIVSPHLDEEISQFCKEKGVFYMPGVMTPTELVKAMKLGHTILKLFPGEVVGPQFVKAMKGPFPNVKFVPTGGVNLDNVCEWFKAGVLAVGVGSALVKGTPVEVAEKAKAFVEKIRGCTEQKLISEEDLQSRPEPTAPPEESFRSGVETTTPPQKQEPIDKELYPLTSLRSLFGNDPSSQ
modifications: N-terminal myristoylation motif (6 N-terminal residues of HIV Gag); myristoylated in mammalian cells, not in E. coli
notes: Fusion of the HIV Gag N-terminal six residues, a linker, I3-01, a myc tag and the HIV Gag p6 domain; also called Myr-I3-01-p6
With B1, the binding result in data set [1] was “binds”.

B2: EPN-01 (designed binder)
chain: B1 chain with M20I
modifications: N-terminal myristoylation motif
notes: Myr-I3-01-myc-p6 with the methionine at the N-terminal end of the I3-01 O domain mutated to isoleucine
As to B2, the binding result in data set [2] is on record as “binds”.
